Results as given in patent US20140072613A1, “Compositions and Methods for Treating Cutaneous Scarring” (priority 2012, published 2014).

Assays:
Experiment in all cases: cell-based or functional assay
[1] = biological target: T1, DDR2(h) (human) (UniProt Q16832)
T1 sequence (looked up): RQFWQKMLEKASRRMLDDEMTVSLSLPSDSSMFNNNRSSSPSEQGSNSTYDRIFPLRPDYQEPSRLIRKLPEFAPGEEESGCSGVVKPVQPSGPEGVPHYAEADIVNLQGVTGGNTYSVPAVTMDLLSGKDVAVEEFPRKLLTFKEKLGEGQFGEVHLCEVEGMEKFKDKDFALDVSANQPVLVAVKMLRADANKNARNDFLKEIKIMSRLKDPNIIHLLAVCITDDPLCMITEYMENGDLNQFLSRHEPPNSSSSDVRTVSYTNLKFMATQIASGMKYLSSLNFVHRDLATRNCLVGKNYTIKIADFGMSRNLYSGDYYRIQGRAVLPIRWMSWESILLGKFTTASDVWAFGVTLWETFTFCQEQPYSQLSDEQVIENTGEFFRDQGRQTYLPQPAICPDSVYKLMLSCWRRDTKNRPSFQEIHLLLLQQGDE

[2] = biological target: PKA(h) (human) (UniProt P17612)
[3] = biological target: SRPK1(h) (human) (UniProt Q96SB4)
[4] = biological target: PAK5(h) (human) (UniProt Q9P286)
Chain of PAK5(h) (human) (Q9P286 whole entry): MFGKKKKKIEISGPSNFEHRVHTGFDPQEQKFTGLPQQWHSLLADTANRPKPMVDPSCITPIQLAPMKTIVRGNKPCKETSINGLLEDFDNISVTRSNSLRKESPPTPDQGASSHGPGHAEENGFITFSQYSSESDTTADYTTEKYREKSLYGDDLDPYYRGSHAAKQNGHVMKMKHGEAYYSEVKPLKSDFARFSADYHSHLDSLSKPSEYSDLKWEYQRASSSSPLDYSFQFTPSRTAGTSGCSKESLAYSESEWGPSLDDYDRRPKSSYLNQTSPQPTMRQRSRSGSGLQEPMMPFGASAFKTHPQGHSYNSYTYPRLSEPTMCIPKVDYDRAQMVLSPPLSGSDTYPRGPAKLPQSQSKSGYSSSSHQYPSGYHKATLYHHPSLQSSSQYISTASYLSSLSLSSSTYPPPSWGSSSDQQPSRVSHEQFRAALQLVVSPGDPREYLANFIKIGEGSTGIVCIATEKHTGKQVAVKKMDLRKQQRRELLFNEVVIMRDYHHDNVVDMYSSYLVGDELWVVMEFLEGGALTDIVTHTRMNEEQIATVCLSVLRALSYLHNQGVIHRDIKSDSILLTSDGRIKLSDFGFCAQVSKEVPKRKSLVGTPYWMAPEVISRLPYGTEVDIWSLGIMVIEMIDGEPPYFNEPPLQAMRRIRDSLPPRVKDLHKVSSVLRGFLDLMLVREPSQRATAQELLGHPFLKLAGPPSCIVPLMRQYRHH

[5] = biological target: HIPK2(h) (human) (UniProt Q9H2X6)
[6] = biological target: MAPKAP-K3(h) (human) (UniProt Q16644)
Chain of MAPKAP-K3(h) (human) (Q16644 whole entry): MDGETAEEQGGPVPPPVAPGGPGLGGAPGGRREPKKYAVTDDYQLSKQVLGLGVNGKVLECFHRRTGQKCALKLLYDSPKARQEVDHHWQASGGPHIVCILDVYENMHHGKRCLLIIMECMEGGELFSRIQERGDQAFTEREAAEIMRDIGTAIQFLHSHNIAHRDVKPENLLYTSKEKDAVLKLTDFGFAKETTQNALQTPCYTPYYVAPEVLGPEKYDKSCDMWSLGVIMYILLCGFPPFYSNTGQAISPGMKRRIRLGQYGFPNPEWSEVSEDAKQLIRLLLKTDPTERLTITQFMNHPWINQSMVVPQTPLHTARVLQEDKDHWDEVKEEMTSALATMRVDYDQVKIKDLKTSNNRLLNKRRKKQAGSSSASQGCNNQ

[7] = biological target: PRK2(h) (human) (UniProt Q16513)
Chain of PRK2(h) (human) (Q16513 501-984 limits assumed): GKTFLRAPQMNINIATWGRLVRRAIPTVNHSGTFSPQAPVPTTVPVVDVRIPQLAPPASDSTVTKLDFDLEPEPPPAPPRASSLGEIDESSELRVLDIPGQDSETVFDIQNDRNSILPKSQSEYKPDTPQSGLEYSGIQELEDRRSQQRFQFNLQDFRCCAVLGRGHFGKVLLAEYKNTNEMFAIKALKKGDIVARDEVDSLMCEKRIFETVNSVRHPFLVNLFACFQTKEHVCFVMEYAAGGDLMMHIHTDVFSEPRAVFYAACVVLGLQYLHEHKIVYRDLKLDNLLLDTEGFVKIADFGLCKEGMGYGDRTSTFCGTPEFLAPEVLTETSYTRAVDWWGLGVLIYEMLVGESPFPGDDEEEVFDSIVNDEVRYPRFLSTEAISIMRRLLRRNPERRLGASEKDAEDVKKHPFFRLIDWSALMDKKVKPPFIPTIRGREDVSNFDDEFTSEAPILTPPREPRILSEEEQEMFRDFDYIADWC

[8] = biological target: CDK5/p35(h) (human) (UniProt Q00535)
[9] = biological target: WNK3(h) (human) (UniProt Q9BYP7)
Chain of WNK3(h) (human) (Q9BYP7 1-434 limits assumed): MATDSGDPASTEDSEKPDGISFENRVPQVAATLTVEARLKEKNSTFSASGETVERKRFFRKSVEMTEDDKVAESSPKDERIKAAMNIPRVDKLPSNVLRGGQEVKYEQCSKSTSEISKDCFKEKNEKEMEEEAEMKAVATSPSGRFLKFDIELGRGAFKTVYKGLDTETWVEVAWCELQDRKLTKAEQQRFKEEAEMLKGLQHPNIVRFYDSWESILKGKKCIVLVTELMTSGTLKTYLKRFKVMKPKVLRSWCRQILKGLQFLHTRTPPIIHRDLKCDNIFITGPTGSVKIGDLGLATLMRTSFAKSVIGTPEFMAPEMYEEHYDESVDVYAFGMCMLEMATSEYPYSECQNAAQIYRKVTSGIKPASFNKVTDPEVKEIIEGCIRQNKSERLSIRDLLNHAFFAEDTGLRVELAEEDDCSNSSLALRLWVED

[10] = biological target: JAK2(h) (human) (UniProt O60674)
[11] = biological target: CDK3/cyclinE(h) (human) (UniProt Q00526)
[12] = biological target: T2, TSSK1(h) (human) (UniProt Q9BXA7)
T2 sequence (looked up): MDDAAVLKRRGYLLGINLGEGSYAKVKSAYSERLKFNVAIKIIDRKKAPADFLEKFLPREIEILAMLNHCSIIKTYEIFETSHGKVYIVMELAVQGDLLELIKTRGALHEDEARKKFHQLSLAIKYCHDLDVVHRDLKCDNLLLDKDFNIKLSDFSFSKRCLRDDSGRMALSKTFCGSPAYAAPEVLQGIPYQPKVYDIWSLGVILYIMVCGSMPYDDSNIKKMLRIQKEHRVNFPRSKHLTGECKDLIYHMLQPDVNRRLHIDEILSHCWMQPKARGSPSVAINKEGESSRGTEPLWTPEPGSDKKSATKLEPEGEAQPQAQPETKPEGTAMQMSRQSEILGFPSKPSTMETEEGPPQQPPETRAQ

[13] = biological target: CHK2(R145W)(h) (human) (UniProt O96017)
[14] = biological target: ROCK-II(h) (human) (UniProt O75116)
[15] = biological target: T3, PDK1(h) (human) (UniProt O15530)
T3 sequence (looked up): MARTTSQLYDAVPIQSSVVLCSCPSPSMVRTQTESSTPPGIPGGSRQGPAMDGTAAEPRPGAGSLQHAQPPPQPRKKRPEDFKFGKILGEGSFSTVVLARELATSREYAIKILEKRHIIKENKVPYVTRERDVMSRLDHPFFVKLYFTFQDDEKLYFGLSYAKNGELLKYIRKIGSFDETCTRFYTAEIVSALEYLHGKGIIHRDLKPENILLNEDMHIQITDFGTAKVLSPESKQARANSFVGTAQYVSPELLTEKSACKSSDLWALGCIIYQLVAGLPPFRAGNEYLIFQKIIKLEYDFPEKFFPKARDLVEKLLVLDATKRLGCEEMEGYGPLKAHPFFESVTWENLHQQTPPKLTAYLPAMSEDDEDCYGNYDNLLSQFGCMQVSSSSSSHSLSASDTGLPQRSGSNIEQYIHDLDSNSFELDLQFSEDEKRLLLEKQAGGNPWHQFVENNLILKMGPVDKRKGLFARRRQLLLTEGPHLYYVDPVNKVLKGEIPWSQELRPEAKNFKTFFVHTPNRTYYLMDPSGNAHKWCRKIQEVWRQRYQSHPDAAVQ

[16] = biological target: T4, PhKγ2(h) (human) (UniProt P15735)
T4 sequence (looked up): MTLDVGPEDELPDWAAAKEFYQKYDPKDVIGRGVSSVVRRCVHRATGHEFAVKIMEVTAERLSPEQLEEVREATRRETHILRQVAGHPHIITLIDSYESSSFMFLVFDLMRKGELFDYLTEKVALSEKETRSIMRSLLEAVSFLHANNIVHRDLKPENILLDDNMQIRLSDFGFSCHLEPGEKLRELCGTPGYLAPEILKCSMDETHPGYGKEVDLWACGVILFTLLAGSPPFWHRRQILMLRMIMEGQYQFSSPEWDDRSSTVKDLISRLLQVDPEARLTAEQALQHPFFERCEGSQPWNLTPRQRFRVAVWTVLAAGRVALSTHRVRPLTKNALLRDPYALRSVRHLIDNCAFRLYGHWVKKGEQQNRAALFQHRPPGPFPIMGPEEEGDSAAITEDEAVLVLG

[17] = biological target: Mnk2(h) (human) (UniProt Q9HBH9)
[18] = biological target: CaMKI(h) (human) (UniProt Q14012)
Chain of CaMKI(h) (human) (Q14012 whole entry): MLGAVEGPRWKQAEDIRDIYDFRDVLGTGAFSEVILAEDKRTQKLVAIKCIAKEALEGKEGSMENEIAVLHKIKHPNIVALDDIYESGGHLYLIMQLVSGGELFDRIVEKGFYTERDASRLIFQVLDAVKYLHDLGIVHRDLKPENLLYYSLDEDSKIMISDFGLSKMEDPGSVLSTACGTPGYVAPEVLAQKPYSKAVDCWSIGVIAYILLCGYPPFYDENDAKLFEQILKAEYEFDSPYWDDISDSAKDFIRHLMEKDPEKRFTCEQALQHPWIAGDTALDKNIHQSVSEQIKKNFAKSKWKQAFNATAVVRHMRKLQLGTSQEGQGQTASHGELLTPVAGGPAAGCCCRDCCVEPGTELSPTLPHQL

[19] = biological target: AMPKα2(h) (human) (UniProt P54646)
[20] = biological target: SAPK2b(h) (human) (UniProt Q15759)
Chain of SAPK2b(h) (human) (Q15759 whole entry): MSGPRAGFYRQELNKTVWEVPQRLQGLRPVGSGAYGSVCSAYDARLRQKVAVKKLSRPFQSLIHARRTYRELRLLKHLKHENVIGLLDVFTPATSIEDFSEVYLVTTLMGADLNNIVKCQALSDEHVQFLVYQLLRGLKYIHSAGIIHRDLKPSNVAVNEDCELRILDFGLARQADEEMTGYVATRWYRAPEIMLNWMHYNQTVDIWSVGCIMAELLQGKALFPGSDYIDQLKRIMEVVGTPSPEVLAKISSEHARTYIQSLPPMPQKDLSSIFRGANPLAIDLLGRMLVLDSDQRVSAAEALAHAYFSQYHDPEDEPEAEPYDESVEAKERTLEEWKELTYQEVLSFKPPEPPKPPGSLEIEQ

[21] = biological target: DAPK1(h) (human) (UniProt P53355)
Chain of DAPK1(h) (human) (P53355 1-363 limits assumed): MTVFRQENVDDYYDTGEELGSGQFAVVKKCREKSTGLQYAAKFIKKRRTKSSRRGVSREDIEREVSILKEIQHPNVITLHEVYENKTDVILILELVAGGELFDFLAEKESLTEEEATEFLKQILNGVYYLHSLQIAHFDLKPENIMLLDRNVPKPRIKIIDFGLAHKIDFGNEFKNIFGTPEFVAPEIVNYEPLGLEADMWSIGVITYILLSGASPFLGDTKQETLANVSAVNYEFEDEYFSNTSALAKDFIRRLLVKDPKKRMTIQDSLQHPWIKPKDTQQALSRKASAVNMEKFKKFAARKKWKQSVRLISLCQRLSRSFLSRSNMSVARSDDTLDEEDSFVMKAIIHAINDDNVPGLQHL

[22] = biological target: mTOR(h) (human) (UniProt P42345)
Chain of mTOR(h) (human) (P42345 1362-2549 limits assumed): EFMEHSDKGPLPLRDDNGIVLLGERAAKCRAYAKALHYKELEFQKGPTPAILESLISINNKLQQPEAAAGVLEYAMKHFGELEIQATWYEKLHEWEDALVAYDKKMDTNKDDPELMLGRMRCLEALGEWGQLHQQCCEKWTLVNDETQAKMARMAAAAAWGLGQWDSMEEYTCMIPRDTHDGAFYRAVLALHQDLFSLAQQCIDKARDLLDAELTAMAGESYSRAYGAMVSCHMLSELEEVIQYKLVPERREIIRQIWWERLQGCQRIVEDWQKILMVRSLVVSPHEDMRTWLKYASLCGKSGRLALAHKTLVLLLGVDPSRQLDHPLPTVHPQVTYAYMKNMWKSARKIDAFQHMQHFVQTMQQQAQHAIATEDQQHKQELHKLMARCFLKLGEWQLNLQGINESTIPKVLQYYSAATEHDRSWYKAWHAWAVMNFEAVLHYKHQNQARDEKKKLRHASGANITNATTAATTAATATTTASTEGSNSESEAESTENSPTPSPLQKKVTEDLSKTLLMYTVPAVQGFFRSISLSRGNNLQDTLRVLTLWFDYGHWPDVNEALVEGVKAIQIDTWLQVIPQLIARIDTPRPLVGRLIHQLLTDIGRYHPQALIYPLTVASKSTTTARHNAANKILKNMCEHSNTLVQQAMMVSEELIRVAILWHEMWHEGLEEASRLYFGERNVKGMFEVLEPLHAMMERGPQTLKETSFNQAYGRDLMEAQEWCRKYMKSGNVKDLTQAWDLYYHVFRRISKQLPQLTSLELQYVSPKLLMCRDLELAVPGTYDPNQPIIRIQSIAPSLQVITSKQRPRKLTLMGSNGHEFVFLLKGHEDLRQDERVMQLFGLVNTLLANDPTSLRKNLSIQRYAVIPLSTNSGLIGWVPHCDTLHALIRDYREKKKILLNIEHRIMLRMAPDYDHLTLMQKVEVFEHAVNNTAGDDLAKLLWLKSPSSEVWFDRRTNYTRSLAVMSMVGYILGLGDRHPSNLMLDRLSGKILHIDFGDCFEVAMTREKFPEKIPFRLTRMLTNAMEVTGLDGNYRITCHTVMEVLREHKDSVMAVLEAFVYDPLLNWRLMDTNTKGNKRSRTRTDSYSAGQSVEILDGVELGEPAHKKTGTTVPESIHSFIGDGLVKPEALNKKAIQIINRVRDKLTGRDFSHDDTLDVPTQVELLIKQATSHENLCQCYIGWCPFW

[23] = biological target: ASK1(h) (human) (UniProt Q99683)
[24] = biological target: IRAK1(h) (human) (UniProt P51617)
Chain of IRAK1(h) (human) (P51617 194-712 limits assumed): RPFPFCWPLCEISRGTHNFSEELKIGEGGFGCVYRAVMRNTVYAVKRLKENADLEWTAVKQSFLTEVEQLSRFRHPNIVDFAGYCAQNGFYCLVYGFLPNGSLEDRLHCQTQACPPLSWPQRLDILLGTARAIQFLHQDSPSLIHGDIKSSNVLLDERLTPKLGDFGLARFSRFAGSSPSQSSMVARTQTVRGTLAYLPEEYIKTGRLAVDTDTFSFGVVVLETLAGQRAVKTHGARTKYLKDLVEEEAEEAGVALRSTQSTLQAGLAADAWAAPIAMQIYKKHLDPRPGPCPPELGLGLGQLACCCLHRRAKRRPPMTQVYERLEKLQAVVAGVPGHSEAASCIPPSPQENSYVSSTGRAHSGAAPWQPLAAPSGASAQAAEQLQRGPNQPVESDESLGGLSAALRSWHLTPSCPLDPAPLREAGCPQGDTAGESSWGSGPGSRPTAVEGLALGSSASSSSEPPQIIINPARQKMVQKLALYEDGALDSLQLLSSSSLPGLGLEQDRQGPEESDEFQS

MMI-0500 (peptide)
% activity, 100 µM [1]: 79% | % activity, 100 µM [2]: 118% | % activity, 100 µM [3]: 80% | % activity, 100 µM [4]: 125% | % activity, 100 µM [5]: 38% | % activity, 100 µM [6]: 9% | inhibition of kinase activity at 100 µM [6]: > 65% | % activity, 100 µM [7]: 7% | % activity, 100 µM [8]: 59% | % activity, 100 µM [9]: 9% | % activity, 100 µM [10]: 49% | % activity, 100 µM [11]: 8% | % activity, 100 µM [12]: 46% | % activity, 100 µM [13]: 3% | % activity, 100 µM [14]: 2% | % activity, 100 µM [15]: 178% | % activity, 100 µM [16]: 16% | % activity, 100 µM [17]: 6% | % activity, 100 µM [18]: -1% | inhibition of kinase activity at 100 µM [18]: > 65% | % activity, 100 µM [19]: 9% | % activity, 100 µM [20]: 42% | % activity, 100 µM [21]: 0% | % activity, 100 µM [22]: 135% | % activity, 100 µM [23]: -4% | % activity, 100 µM [24]: 5%
